test: yeast display, Sf9 membrane polyspecificity reagent, FACS + sequencing; frameworks hold sequencing errors
Outline: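 Genes from sorted yeast were amplified by colony PCR, read by MiSeq 2 × 250 sequencing and filtered on CDR length. These cells carried a synthetic nanobody library in Saccharomyces cerevisiae BJ5465 and were sorted by FACS into low and high (top ~1%) gates on anti-HA and streptavidin fluorescence. Polyreactivity is labelled according to the gate of origin.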

Sequence | polyreactivity (PSR sort gate)
QVQLVESGGGLVQEGGSLSLSCAASGSTFTVYNMGWYRKAPGEERELVAANSRRGDSTYYADSVKGRFTISRDNAKNTVYSQMHSLKPEETAVYYSNARSAYGTGNQRGRRYYWGQGTEVTVSS | high polyreactivity
QVQLVESGGGLVQERVSLRLSCAASGFIFLFNAMGWNRQAPGKERELVAAISDDGSTYYADSLKGRFTISRDNAKNTVYLQMTSLKTEDTAVYYCAAEYYYDRYTLDYWGQGTQVTVSS | high polyreactivity
QVQLVESGGGLVQGGGSLRIICAASGFTFTDYAMGWYRQAPGKERELVAAIDGSGGRTYYAYSVKGRFTISRDNAKNTFYLQMNSLKPEHTAVYYCAAGLYSRLYWYRLDYWGQGTQVTVSS | low polyreactivity
QVQLVESGGGLVQGGGSLRLRCAASGFNFDWYTMGWYRQAPGKERELVAAITIGGSTDYADSVKGRFTISRDNAKNTVYLQMNSLKREDTAVYYCNALWYLSGTWYDYWGQGTQVTVSS | low polyreactivity
QVQLVESGGGLVQGGGSLRLSCAASGFTFYYNAMGSYRQAPGKERELVADITSGGDTYYADSVKGRFTISRDNAKNTVYLQRNSLKPEDTAVYYCAAELWGLFDYWGQGTEVTVSS | low polyreactivity
QVQLVESGGGLVQGGGSLRLSCAASGRIFDRYAMGWYRQAPGKERELVAAISSSGGSTYYADSVKGRFTISRDNAKNTVYLQMNSLKPEDTPVYYCNADYYVSKLDYWGQGTQVTVSS | high polyreactivity
QVQLVESGGGLVQGGGSLRLSCAASGRIFDYYTMGWYRPAPGKERELVAAISSGGSTNYADYVKGRFTISRDNAKNTVYLQMNSLKPEDTAVYYCNVDLTTVGHWYYYRPGYDYWEQGTQVTVSS | low polyreactivity
QVQLVESGGGLVQGGGSLRLSCAASGRNWSRYAMGWYRQAPGKERELVADITYSGGNTYYADSVKGRFTISRDNAKNTVYLQMNSLKPEDTAVYYCSTGWSWWTFDYWGQGTQVTVSS | high polyreactivity
QVQLVESGGGLVQGGGSLRLSCDASGFIFPAYARGWYRQAPGKEREWVAAISKSGGRTYYADSVKGRFTISRDNAKNPVYLQMNRLKPEDTAVNYCPARLYNYDTSSSFDYWGQGTQVNVSS | high polyreactivity
QVQLVESGGGLVQGGGSLRLSFAASGSIFWRNAMGWYRQAPGKERELVAAITSGGSTYYADSVKGRFTISRDNAKNTVYLQMNSLKPEDTAVYYCAAGGRWARWLFPSRYDYWGQGTQVTVSS | low polyreactivity
QVQLVESGGGLVQGGGSLSLSCAASGITFLNYAMGWYRQAPGKERELVAAITWRGGRTYYADSVKGRFTISRDNEKNTVYLQMNSLKPEDTAVYYCARRPGYALTWRVSGRYDYWGQGTQVTVSS | high polyreactivity
QVQLVESGGGLVQGGSLRLSCAATGFTFPIYVMAWYRQAPGKERQLVDSISSVGSTNYADSVKGRFTISRDNAKNTVYLQMNSMKPEDTAVYYCNADAPNSYGGFDYWGQGTQVTVSS | low polyreactivity
QVQLVESGGGLVQGVGTLRLSCAASGITFVYYAMGWSRHAPVKERELFAAISSGGSSTYYADSVKGRFTMSRDTAKNTVYLQMHSQKPEDTAVYYCAATNYFPRLQWMDYWGQGTQVTVSS | low polyreactivity
QVQLVESGGGLVQPGCSLRLSCAASGSIFYAYDMGWYRQSPGKERQLVAAISWSGGTTYYADSVKGRFTISRDNAKNTVYLQMNSLIPEDTAVYYCAAREYYTDVHGTRRYDYWGQGTQVTVSS | low polyreactivity
QVQLVESGGGLVQPGGSLRLSCAASGFIFTLYAMGWYRQAPGKEREFFAAISWSDGSTTYADSVKGRFTISRDNAKNTVYLQMNSLKREDTAVYYCAAVTSSYIRGLVYHFYYWGQGTLVTVSS | low polyreactivity
QVQLVESGGGLVQPGGSLRLSCAASGFIYSYYAMGLYRPAPGKERELVAVITRSVGSTYYADSVKGRFTISRDNAKNTVYLQMNSLKPEYTAVYYCAAGYFYHFSRYTNRYGYWGQGTQVTVSS | high polyreactivity
QVQLVESGGGLVQPGGSLRLSCAASGRIFGRYAMGWYRQAPGKERELVAAISRGGTTNYADSVKGRFTISRDNAKNTVYLQMNSLKPEDTAVYYCAKSGPKRGQYDYWGQGTLVTVSS | high polyreactivity
QVQLVESGGGLVQPGGSLRLSCAASGSIFGSYDMGWYRQAPGKERELVAAITYSVGTTYYADSVKGRFTISRDNAKNTVYLQMNSLKPEDNAVYYCAADFAPVGLPSPFAVSEGEDDYWGQGTQVTVSS | low polyreactivity
QVQLVESGGGLVQPGGSLRLSCAASGSIFYRNAMGWYRQAPGKERELVAAITWSGVNTYYADSVKGRFTISRDNAKNTVYLQMNSLKPEDTAVYYCAVPSRYWLNRGFDYWGQGTQVTVSS | low polyreactivity
QVQLVESGGGLVQPGGSLRLSCAAYGLTFYGYTMGWYRQAPGKERELVASITRSGGSTYADSVKGRFTISRDNAKNTVYLQMNSLKPEDTAVFYCAAVYRARGYYYWGQGTQVTVSS | high polyreactivity

Sequence | polyreactivity (PSR sort gate)
QVQLVESGGGLVQQGGILRLSCASSGSNFILNEMGWSRQAPRKDRELVATISSSDTSTYYADSVKGRFTISRDNAKNTVYVQMNSLKPEDTAVYYCNADYYTTSYLQRVYHYGVEYDYWGQGTQVTVSS | low polyreactivity
QVQLVESGGGLVQSGGSLRLICAASGRIFPYYAMGWYRQAPGKERELVATIRGRVGTTYYADSVKGRFTISRDNAKNTVYLQMTSLKPEDTAVYYCAKREYSRYTRVFGYGSWGQCTQVTVSS | high polyreactivity
QVQLVESGGGLVQSGGSLRLICAASGSTFGRYPMGWYRQAPGKERELVARISSGGSTTYADSVKGRFTISRDNAKNTVYFLRNSLKTEETAVYYSAADTPYWRYDYWGQGTQVTVSS | high polyreactivity
QVQLVESGGGLVQSGGSLRLSCAASGGTFRYNAMGRYRQAPGKERELVAAITSVGITNYADSVKGRFTISRDNAKNTVYLQMNSLNPEDTAVYYCAKRYYRYGARSWYYPYDYWGQGTQVTVSS | high polyreactivity
QVQLVESGGGLVQSGGSLRLSCAASGITLYWYAMGWYRQAPGKERELVAAITFNGGSTYADSVKGRFTISRDNAKNTVYLQMNSLKPEDTAVYYFASGDGPSLFDYWGQGTQVTVSS | low polyreactivity
QVQLVESGGGLVQSGGSLRLSCAASGRIFDWNVMGSYRQAPGKERELVSVINDSTGTTYYADSVKGRFTISRDNAKNTVYLQMNSLKPEDTAVYYCAAYVWISSEEFYYWGQGTQVTVSS | low polyreactivity
QVQLVESGGGLVQSGGSLRLSCAASGRIFFYYAMGGYRQAPGKERELVATIRDGGGTTYYADSVKRRFTISIDNAKNTVYLQMNSLKTDDTAFYYCNVDVWRKYYYWGQGTQVTVSS | low polyreactivity
QVQLVESGGGLVQSGGSLRLSCAASGRIFYYNAMGWYRQAPGKERELVAAITSSSGSSTYYADSVKGRFTISRDNAKNTVYLQMNSLKPEDTAVYYCAADATFIIRYLSRSDYWGQGTQVTVSS | low polyreactivity
QVQLVESGGGLVQSGGSLRLSCAASGRIIKSYAMGRYRQAPGKERELVAAISRSGGRTYYADSVKGRFSISRDNAKNTVYLQMISLKPEDTAVYYCAATTFVAPSWGQGTQVTVSS | low polyreactivity
QVQLVESGGGLVQSGGSLRLSCAASGRTFGYYDMGWYRQAPGKERELVASITRRGGSTYYADSVKGRFTISRDNAKNTVYLQMNSLKPEDTAGYYCAARYKARYEPARYDYWGQGTQVTVSS | high polyreactivity
QVQLVESGGGLVQSGGSLRLSCAASGRTFSYYAMGWYRQAPGKERELVAAISSGGSTNYADSVKGRFTISRDNAKNTVYLQMNSLKPEDTEVYYCATSSIWGSGRVRWVTYYYWGQGTQVTVSS | low polyreactivity
QVQLVESGGGLVQSGGSLRLSCAASGRTFYDNVMGWYRQAPGKERELVAAISSGGSTNYADSVKGRFTISRDNAKNTVYLQMNSLKPEDTAFYYCATIGGGGWAYEYWGQGTQVTVSS | low polyreactivity
QVQLVESGGGLVQSGGSLRLSCAASGRTFYGNAMGWYRQAPGKERELVAAITSSGGSTYYADSVKGRFTISRDNAKNTVYLQMNSLKPEDNAVYYCAAYTYLEDFESWGQGTQVTVSS | high polyreactivity
QVQLVESGGGLVQSGGSLRLSCAASGRTLGYNAMGWYRQAPGKERELVASINSGVSTNYADSVKGRFTISRDNAKNTVYLQMNSLKPEDTAVYYCAAEKYGRGDGREGWEYDYWGQGTQVTVSS | low polyreactivity
QVQLVESGGGLVQSGGSLRLSCAASGSIFDGYAMGWYRQAPGKERELVAAISKGGTRTYYADSVKGRFTISRDNAKNTVYLQMNSLKPEDTAVYYGNAYFRREPDDGDYDYWGQGTQVTVSS | high polyreactivity
QVQLVESGGGLVQSGGSLRLSCAASGSIFTPYSMGWYRQAPGKERELVAGISYRGGTTYYADSVKGRFTISRDNAKNTVYLQMNSLKPEDYAVYYCAAAASSPGGWFYYWGQGTQVTVSS | high polyreactivity
QVQLVESGGGLVQSGGSLRLSCAASGSTFSINAMGWYRQAPGKERELVAAITWRGVRTYYADSVKGRFTITRDNAKNTVYFQMNSLKPEDTAVYYCAADVVVAGHPGFDYWGQGTQVTVSS | high polyreactivity
QVQLVESGGGLVQSGGSLRLSCAASGYIFGVNAMGWYRQAPGKERELVAAIDSGSRTYYADSVKGRFTISRDNAKNTVYLQMNSLIPEDTAVYYCATNFYVSYGGGYYTIWYDYWGQGTQVTVSS | low polyreactivity
QVQLVESGGGLVQSGGSLRLSCAASGYIFRFNAMGWYRQAPGKEREMVAVITSGARTYYADSVKGRFTISRDNAKNTVYLQMNSLKPEDTAVYYCNAGARRYLYDYWGHGTQVTVSS | low polyreactivity
QVQLVESGGGLVQSGGSLRLSSAAYGNTFFPYTIGRYRQAPGKERELVAAISWNGGTTYYADSVKGRFTISRDNAKNTVYLQMISLKPEDSAVYYCAAPRASGYYWGQGTQVTVSS | high polyreactivity

— the nanobody polyreactivity screen of Harvey et al. (2022)
